B1: Table S2 A row 644 (dsDNA)
DNA 1: GCCGGCGGCCGGAAGTCTATCCCGCAGAAGCGCAGC
DNA 2: GCTGCGCTTCTGCGGGATAGACTTCCGGCCGCCGGC
B2: Table S2 A row 166 (dsDNA)
DNA 1: GATATGGCAGGAAGTAGGGCCTGGAAACCGCACGGC
DNA 2: GCCGTGCGGTTTCCAGGCCCTACTTCCTGCCATATC
B3: Table S2 A row 1210 (dsDNA)
DNA 1: CGGGAGGGGCAGGAAGCGGACTGCGGTGGGGAAGGG
DNA 2: CCCTTCCCCACCGCAGTCCGCTTCCTGCCCCTCCCG
B4: Table S2 A row 987 (dsDNA)
DNA 1: TGGGCAGGAAGTGGTATCTGATTGTGGTTTTGATTT
DNA 2: AAATCAAAACCACAATCAGATACCACTTCCTGCCCA
B5: Table S2 A row 483 (dsDNA)
DNA 1: AACCAAACAGCCACAGGAAGTGGTTTCTGTGATTCA
DNA 2: TGAATCACAGAAACCACTTCCTGTGGCTGTTTGGTT
B6: Table S2 A row 1758 (dsDNA)
DNA 1: GCTGATAGAACAGGATGTGGTAAAGAAGCAGGCCAA
DNA 2: TTGGCCTGCTTCTTTACCACATCCTGTTCTATCAGC
B7: Table S2 A row 1136 (dsDNA)
DNA 1: CCCGCTCACGCCGGAAGTGGTTTGCGTTTTCAAGAT
DNA 2: ATCTTGAAAACGCAAACCACTTCCGGCGTGAGCGGG
B8: Table S2 A row 930 (dsDNA)
DNA 1: AGCTCCACCGGAAACGGCCTGGCCGCAGCCAATCAG
DNA 2: CTGATTGGCTGCGGCCAGGCCGTTTCCGGTGGAGCT
B9: Table S2 A row 1142 (dsDNA)
DNA 1: ACAATAACAGGAAGTGGTGGGGACTGCGGTGACCTG
DNA 2: CAGGTCACCGCAGTCCCCACCACTTCCTGTTATTGT
B10: Table S2 A row 466 (dsDNA)
DNA 1: GTGCTAGGACACAGGAAGCGATACCACAAAGAACAT
DNA 2: ATGTTCTTTGTGGTATCGCTTCCTGTGTCCTAGCAC
B11: Table S2 A row 1206 (dsDNA)
DNA 1: TTGATTGGAGCAGGATGTGGTCAGAACAGTATGCAG
DNA 2: CTGCATACTGTTCTGACCACATCCTGCTCCAATCAA
B12: Table S2 A row 966 (dsDNA)
DNA 1: GGCCTTCATTACACAGGATGCGGTTGAAATGCATCA
DNA 2: TGATGCATTTCAACCGCATCCTGTGTAATGAAGGCC
B13: Table S2 A row 553 (dsDNA)
DNA 1: CCTTGCAGCAACGGATGTGGGTTTTTTTTTTTCTTT
DNA 2: AAAGAAAAAAAAAAACCCACATCCGTTGCTGCAAGG
B14: Table S2 A row 92 (dsDNA)
DNA 1: GTCCCCGTAACAGGATGTGGTGAGCTGTTATACCAC
DNA 2: GTGGTATAACAGCTCACCACATCCTGTTACGGGGAC
B15: Table S2 A row 964 (dsDNA)
DNA 1: AATCTGAAACAGGAAATAAGTCTGTGGTTGTGTGTT
DNA 2: AACACACAACCACAGACTTATTTCCTGTTTCAGATT
B16: Table S2 A row 223 (dsDNA)
DNA 1: AGGGAACAGGAAATGCAAAAAACCACAAGGGACAAG
DNA 2: CTTGTCCCTTGTGGTTTTTTGCATTTCCTGTTCCCT
B17: Table S2 A row 435 (dsDNA)
DNA 1: GACACAAGAACAGCAGGATGTGGTCAGAGGCGTCGT
DNA 2: ACGACGCCTCTGACCACATCCTGCTGTTCTTGTGTC
B18: Table S2 A row 1146 (dsDNA)
DNA 1: GACACAAGCCTCACAGGATGTGGTCAAAGAAGGTTG
DNA 2: CAACCTTCTTTGACCACATCCTGTGAGGCTTGTGTC

Target: ETS1:RUNX1 (Homo sapiens, UniProt P14921;Q01196 full;full)
Sequence (P14921 whole entry, chain 1 of 2): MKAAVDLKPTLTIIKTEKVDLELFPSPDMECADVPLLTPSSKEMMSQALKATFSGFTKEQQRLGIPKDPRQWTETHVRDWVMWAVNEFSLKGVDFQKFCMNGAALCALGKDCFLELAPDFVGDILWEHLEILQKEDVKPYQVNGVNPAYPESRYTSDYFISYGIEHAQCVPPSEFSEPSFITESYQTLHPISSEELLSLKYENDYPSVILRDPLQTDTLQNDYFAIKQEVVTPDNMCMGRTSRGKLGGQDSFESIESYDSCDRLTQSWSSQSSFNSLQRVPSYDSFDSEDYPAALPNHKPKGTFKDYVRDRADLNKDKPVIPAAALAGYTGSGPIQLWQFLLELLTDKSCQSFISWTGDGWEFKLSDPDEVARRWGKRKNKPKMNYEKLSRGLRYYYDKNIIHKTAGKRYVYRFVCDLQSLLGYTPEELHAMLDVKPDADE
Sequence (Q01196 whole entry, chain 2 of 2): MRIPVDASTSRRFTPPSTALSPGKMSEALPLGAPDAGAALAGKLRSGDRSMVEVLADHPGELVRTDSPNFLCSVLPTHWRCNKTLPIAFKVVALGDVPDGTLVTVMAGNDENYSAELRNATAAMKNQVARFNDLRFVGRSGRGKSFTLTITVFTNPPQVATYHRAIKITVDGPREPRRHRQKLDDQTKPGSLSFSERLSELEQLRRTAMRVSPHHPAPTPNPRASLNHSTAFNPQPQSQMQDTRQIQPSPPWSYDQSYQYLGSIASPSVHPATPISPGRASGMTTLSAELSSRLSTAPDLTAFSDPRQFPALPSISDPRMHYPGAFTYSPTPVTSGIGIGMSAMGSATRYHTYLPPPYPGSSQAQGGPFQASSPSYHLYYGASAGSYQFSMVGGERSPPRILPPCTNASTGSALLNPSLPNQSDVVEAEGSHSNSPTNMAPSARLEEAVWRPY
Assay: gcPBM; 1 nM ETS1 + 25 nM RUNX1, anti-ETS1 signal, normalised
Conditions: tags: N-terminal GST (pDEST15), kept (PMC6008103); copies: 1;1; label: surface-attached array probe

Row | Binder | binding signal
1 | B1 | 19100 PBM fluorescence, median of replicate spots
2 | B2 | 25500 PBM fluorescence, median of replicate spots
3 | B3 | 16400 PBM fluorescence, median of replicate spots
4 | B4 | 25700 PBM fluorescence, median of replicate spots
5 | B5 | 16800 PBM fluorescence, median of replicate spots
6 | B6 | 24600 PBM fluorescence, median of replicate spots
7 | B7 | 22300 PBM fluorescence, median of replicate spots
8 | B8 | 16700 PBM fluorescence, median of replicate spots
9 | B9 | 16500 PBM fluorescence, median of replicate spots
10 | B10 | 19800 PBM fluorescence, median of replicate spots
11 | B11 | 23200 PBM fluorescence, median of replicate spots
12 | B12 | 18400 PBM fluorescence, median of replicate spots
13 | B13 | 17200 PBM fluorescence, median of replicate spots
14 | B14 | 19700 PBM fluorescence, median of replicate spots
15 | B15 | 23600 PBM fluorescence, median of replicate spots
16 | B16 | 18100 PBM fluorescence, median of replicate spots
17 | B17 | 17700 PBM fluorescence, median of replicate spots
18 | B18 | 20600 PBM fluorescence, median of replicate spots
